According to article PMC11732086 (2024):

How the values were obtained:
MBP-OsTORKD [1] = target: T1, MBP-OsTORKD (rice, UniProt Q0DJS1 1896-2465); assay: ITC; His-OsFKBP12 in the syringe (10 mM) titrated into MBP-OsNIN8, MBP-OsNIN8m or MBP-OsTORKD in the cell (0.1 mM); 25°C; 20 injections of 2.5 μL, interval 200 s; proteins dialysed in 50 mM potassium phosphate pH 6.4
T1 chain: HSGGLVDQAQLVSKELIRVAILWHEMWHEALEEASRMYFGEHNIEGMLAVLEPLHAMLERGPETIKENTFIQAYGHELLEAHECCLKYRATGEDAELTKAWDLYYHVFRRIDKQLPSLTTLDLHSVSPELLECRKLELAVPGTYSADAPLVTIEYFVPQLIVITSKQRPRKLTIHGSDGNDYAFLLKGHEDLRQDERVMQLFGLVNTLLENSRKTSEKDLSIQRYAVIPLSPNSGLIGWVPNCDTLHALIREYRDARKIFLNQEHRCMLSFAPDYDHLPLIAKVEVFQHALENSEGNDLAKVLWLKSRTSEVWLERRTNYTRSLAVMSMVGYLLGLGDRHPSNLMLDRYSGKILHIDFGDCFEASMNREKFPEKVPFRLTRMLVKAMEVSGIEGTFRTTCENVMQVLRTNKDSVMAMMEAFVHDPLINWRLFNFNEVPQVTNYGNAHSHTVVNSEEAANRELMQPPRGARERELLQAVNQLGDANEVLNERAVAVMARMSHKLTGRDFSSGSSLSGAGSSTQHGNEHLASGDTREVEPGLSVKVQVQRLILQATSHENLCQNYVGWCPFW

MBP-OsTORKD [2] = target: T1, MBP-OsTORKD; assay: ITC

B1: His-OsFKBP12 (natural protein)
chain: MGFEKTILKAGTGPKPVKGQKVTVHCTGFGKDNDLAKKFWSTKDAGQEPFSFNIGQGSVIKGWDEGVMTMQVGEVARIQCTPDYAYGASGFPAWGIRPNSVLVFEIEVLSAQ
MBP-OsTORKD [1]
  stoichiometry N (OsFKBP12 per OsTORKD): 6
MBP-OsTORKD [2]
  Kd: 81.8 µM
